This note sets out measurements from PMC12318605.

Broadly, the pKa is the pH at which an ionisable group is half protonated.

For one data set, the target named is His249 (UniProt position 249, PGVGTHVADCI). Nature of the data set: NMR. The settings on record: 25 °C; 50 mM NaCl; 20 mM sodium phosphate (starting pH 6.8; pH adjusted with HCl or NaOH); 0.1 mM 13C-labelled hOGG1(K249H); no DNA is mentioned in the sample (apparently free enzyme).
The target of a further data set is Asp268 (UniProt position 268, QAVPVDVHMWH). Nature of the data set: kinetics. The settings on record: 15 °C; 100 mM NaCl; 50 mM citric acid-Na2HPO4; Single-turnover conditions: 10 µM hOGG1(K249H) with 5.0 µM oxoG-containing DNA duplex F-oG23/C23 (substrate-bound enzyme).

“8-oxoguanine DNA glycosylase 1 (hOGG1), K249H mutant (Homo sapiens; K249H)”: the values for the pKa in the data set with His249 and with Asp268 were 5.54 ± 0.05 and 4.5 ± 0.39, respectively.
